According to paper PMC9265717:

Target: toll-like receptor 5 (TLR5) (human (endogenous in MDA-MB-468 and MDA-MB-231)) (UniProt O60602)
Sequence of UniProt O60602 (O60602 21-858): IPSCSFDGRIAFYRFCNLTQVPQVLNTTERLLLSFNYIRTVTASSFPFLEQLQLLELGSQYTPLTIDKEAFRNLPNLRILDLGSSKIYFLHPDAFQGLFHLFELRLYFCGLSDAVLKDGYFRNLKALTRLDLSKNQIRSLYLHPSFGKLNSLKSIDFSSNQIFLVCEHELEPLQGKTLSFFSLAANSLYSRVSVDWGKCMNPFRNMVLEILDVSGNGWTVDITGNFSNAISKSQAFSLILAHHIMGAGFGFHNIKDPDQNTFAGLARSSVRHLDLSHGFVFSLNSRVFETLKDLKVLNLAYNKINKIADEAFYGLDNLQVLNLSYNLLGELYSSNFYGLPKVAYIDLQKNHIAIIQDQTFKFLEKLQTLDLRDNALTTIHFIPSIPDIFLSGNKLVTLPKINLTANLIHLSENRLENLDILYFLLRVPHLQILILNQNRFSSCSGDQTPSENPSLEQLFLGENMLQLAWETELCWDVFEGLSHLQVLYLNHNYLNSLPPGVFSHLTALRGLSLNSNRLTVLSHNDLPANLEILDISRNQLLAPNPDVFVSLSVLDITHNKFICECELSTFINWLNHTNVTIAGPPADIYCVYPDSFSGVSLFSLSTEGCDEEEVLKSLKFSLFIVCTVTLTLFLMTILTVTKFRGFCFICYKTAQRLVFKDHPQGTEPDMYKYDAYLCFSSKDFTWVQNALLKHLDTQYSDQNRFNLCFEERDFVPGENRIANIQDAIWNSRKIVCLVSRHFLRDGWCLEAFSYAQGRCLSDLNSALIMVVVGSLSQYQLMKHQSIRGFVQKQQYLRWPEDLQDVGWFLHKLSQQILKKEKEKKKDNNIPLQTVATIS

fibronectin EDA (FnEDA) domain (domain or fragment)
percent of IL-8 release (ELISA) by MDA-MB-231 cells in response to FnEDA (5 µM) that is inhibited by a blocking antibody to TLR5: 30%
